US20090318350A1, “PAN-HER ANTAGONISTS AND METHODS OF USE” (priority 2006, published 2009)
Like-named read-outs stand apart in the source and are kept apart here.

How the values were obtained:
EGFR = target: T1, EGFR (Homo sapiens, UniProt P00533); experiment: Phage ELISA whole-cell binding, A431 cells; conditions: for ligand binding, from the binding curves / binding properties relative to WVS and WVS-R41DL47G: A431 cells; for ligand binding, from the binding curves / Calculated binding (EC50): phage-displayed ligand; for Calculated binding (EC50): A431 whole cell suspension, Abs450, Table 10; for Calculated binding (EC50) in A431 cells / binding properties relative to WVS and WVS-R41DL47G: phage fusion
T1 construct: host or cells: A431 human epidermoid carcinoma cells, whole-cell suspension
Protocol: A431 cells for EGFR binding or T47D cells for HER3 binding were grown as monolayers in tissue culture flasks in media containing fetal bovine serum. Cells were trypsinized, neutralized with growth medium, washed twice with DPBS and resuspended in ice-cold PBS-Glu-T. 105 cells were transferred to 96 well plates and incubated on ice for 1 hour in the presence of varied concentrations of phage. Cells were centrifuged and washed 5× with PBS-T then incubated for one hour at room temperature with anti-M13 pVIII coat protein antibody conjugated with horseradish peroxidase (HRP). Cells again centrifuged and washed 5× with PGS-T. Color developed with TMP followed by H2SO4. Cells pelleted and supernatant transferred to optically transparent plate for measurement of absorbance at 450 nm. […]
The human epidermoid carcinoma line, A431, were obtained from ATCC. Stock cultures of A-431 were propagated in DMEM medium containing 10% fetal bovine serum. A431 cells were used to evaluate EGFR receptor binding.
(§1) The phage fusion ligand variants were then evaluated for binding using the assay described herein in both A431 cells (to investigate EGFR binding) and T47D cells (to investigate HER3 receptor binding) and EC50s were calculated.

Her-3 [1] = target: T2, Her-3 (Homo sapiens, UniProt P21860); experiment: Phage ELISA whole-cell binding, T47D cells; set-up: host or cells: T47D human ductal carcinoma cells, whole-cell suspension; conditions: for Calculated binding (EC50) in T47D cells / binding properties relative to WVS and WVS-R41DL47G: phage fusion
Protocol: (§2) A431 cells for EGFR binding or T47D cells for HER3 binding were grown as monolayers in tissue culture flasks in media containing fetal bovine serum. Cells were trypsinized, neutralized with growth medium, washed twice with DPBS and resuspended in ice-cold PBS-Glu-T. 105 cells were transferred to 96 well plates and incubated on ice for 1 hour in the presence of varied concentrations of phage. Cells were centrifuged and washed 5× with PBS-T then incubated for one hour at room temperature with anti-M13 pVIII coat protein antibody conjugated with horseradish peroxidase (HRP). Cells again centrifuged and washed 5× with PGS-T. Color developed with TMP followed by H2SO4. Cells pelleted and supernatant transferred to optically transparent plate for measurement of absorbance at 450 nm.
(§3) Theoretical estimates were also performed. “N.D.” indicates not determined. […]
Human ductal carcinoma cells were obtained from ATCC. They were maintained in RPMI 1640 medium with 2 mM L-glutamine adjusted to contain 1.5 g/L sodium bicarbonate, 4.5 g/L glucose, 10 mM HEPES, and 1.0 mM sodium pyruvate and supplemented with 0.2 Units/ml bovine insulin, 90%; fetal bovine serum, 10%. T47-D cells were used to evaluate HER3 receptor binding.
as §1

HER3 receptor = experiment: Phage ELISA whole-cell binding, T47D cells; set-up: species or system human; conditions: A431 (EGFR) versus T47D (HER3) binding, phage fusion
Protocol: as §2, §3
Human ductal carcinoma cells were obtained from ATCC. They were maintained in RPMI 1640 medium with 2 mM L-glutamine adjusted to contain 1.5 g/L sodium bicarbonate, 4.5 g/L glucose, 10 mM HEPES, and 1.0 mM sodium pyruvate and supplemented with 0.2 Units/ml bovine insulin, 90%; fetal bovine serum, 10%. […]
as §1

HER5 cells = conditions: cited from earlier work; for stimulation of cell proliferation in EGFR-dependent HER5 cells: isolated ligand variants, previously demonstrated
MCF-7 cells = conditions: cited from earlier work
Her-3 [2] = target: T2, Her-3; conditions: particularly for Her-3; cited from earlier work
[3] = T47D whole cell suspension, phage-displayed ligand, Abs450
[4] = isolated ligand variants, previously demonstrated

T2 sequence (P21860 20-1342): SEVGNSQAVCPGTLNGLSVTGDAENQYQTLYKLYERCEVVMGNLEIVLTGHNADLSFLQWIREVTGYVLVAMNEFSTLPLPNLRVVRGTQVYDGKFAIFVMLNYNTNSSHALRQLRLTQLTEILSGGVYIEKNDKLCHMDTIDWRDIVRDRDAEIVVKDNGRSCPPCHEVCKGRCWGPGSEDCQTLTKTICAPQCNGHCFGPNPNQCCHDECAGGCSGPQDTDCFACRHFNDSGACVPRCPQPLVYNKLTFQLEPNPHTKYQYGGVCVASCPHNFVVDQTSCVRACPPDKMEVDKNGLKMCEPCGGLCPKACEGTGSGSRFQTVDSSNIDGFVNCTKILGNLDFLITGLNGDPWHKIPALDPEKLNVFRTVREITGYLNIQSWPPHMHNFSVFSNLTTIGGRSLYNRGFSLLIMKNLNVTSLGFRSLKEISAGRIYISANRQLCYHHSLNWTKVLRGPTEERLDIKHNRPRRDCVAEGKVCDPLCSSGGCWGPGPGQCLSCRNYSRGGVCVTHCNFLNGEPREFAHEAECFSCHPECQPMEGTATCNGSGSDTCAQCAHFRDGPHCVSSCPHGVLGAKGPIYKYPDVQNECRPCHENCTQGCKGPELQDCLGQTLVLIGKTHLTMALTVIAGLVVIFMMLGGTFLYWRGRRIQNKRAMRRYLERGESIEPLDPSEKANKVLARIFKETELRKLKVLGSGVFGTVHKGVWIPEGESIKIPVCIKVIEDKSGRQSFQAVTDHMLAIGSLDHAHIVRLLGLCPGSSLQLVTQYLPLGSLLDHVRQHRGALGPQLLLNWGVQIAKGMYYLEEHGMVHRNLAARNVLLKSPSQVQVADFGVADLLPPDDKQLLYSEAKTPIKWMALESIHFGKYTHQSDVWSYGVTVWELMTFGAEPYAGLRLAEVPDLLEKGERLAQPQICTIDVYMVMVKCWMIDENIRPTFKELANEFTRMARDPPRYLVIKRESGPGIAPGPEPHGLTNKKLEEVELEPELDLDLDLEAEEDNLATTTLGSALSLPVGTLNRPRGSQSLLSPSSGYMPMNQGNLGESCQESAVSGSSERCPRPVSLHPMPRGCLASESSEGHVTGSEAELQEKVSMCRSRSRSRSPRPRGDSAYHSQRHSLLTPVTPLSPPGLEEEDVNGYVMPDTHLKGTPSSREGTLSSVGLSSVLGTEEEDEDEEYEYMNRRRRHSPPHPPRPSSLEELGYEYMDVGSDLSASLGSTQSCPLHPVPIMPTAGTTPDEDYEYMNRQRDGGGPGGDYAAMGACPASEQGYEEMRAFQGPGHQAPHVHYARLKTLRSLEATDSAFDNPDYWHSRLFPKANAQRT

Substance	Calculated binding (EC50) (EGFR)	Estimated binding (EC50) (Her-3 [1]; [3])	Calculated binding (EC50) in A431 cells (EGFR; Table 14, first half loop)	Calculated binding (EC50) in A431 cells (EGFR; Table 15, second half loop)	Calculated binding (EC50) in T47D cells (Her-3 [1]; Table 14, first half loop)	Calculated binding (EC50) in T47D cells (Her-3 [1]; Table 15, second half loop)	stimulation of cell proliferation in EGFR-dependent HER5 cells (HER5 cells)	also measured
wvs-R41D: WVS background, R at position 41 replaced by D; SEQ ID NO 6 (NWVSECPLSHDGYCLHDGVCMYIEALDKYACNCVVGYIGEDCQYRDLKWWELR; Ligand Variant)	5.8 × 10^11 phage titer/mL	>1 × 10^12 phage titer/mL	–	–	–	–	–	ligand binding, from the binding curves (EGFR): greatly attenuated
wvs-R41DL47G: WVS background, R at position 41 replaced by D, L at position 47 replaced by G; SEQ ID NO 5 (NWVSECPLSHDGYCLHDGVCMYIEALDKYACNCVVGYIGEDCQYRDGKWWELR; Ligand Variant)	4.8 × 10^12 phage titer/mL	–	2.8 × 10^10 phage titer/mL	4.0 × 10^10 phage titer/mL	1.1 × 10^12 phage titer/mL	2.6 × 10^11 phage titer/mL	–	ligand binding, from the binding curves (EGFR): greatly attenuated; ligand binding, from the binding curves (Her-3 [1]; T47D cells, phage-displayed ligand): greatly attenuated
D4-2: WVS background, B-loop YRVKTLDKYA (first half YRVKT); SEQ ID 43 (Ligand Variant)	–	–	3.6 × 10^10 phage titer/mL	–	8.6 × 10^10 phage titer/mL	–	–	receptor binding selectivity (HER3 receptor): bind only the HER3 receptor
T1E: EGF/TGFα chimera, amino terminal residues NSDSE replaced with VVSHFND from TGF-α; SEQ ID NO 4 (VVSHFNDCPLSHDGYCLHDGVCMYIEALDKYACNCVVGYIGERCQYRDLKWWELR; Ligand Variant) [reference compound]	–	1 × 10^10 phage titer/mL	–	–	–	–	capable of stimulating cell proliferation	–
wvs-L47G: WVS background, L at position 47 replaced by G; SEQ ID NO 7 (NWVSECPLSHDGYCLHDGVCMYIEALDKYACNCVVGYIGERCQYRDGKWWELR; Ligand Variant)	6.6 × 10^10 phage titer/mL	–	–	–	–	–	–	–
WVS: EGF variant, amino acids 2 and 3 replaced with W and V, N-terminus NWVSE; SEQ ID NO 3 (NWVSECPLSHDGYCLHDGVCMYIEALDKYACNCVVGYIGERCQYRDLKWWELR; Ligand Variant) [reference compound]	6.6 × 10^8 phage titer/mL	9 × 10^8 phage titer/mL	1.9 × 10^9 phage titer/mL	1.4 × 10^9 phage titer/mL	7.5 × 10^9 phage titer/mL	7.6 × 10^9 phage titer/mL	capable of stimulating cell proliferation	stimulation of MCF-7 cells (MCF-7 cells; [4]): stimulated most effectively; binding affinity (Her-3 [2]): high binding affinity; Calculated binding (EC50) (Her-3 [1]; T47D whole cell suspension, phage-displayed ligand, Abs450, Table 9): 9.8 × 10^9 phage titer/mL
E8: WVS background, B-loop MYIEATKYRG (second half TKYRG); SEQ ID 44 (Ligand Variant)	–	–	–	5.2 × 10^9 phage titer/mL	–	3.1 × 10^10 phage titer/mL	–	binding properties relative to WVS and WVS-R41DL47G (EGFR): intermediate binding properties; binding properties relative to WVS and WVS-R41DL47G (Her-3 [1]; T47D cells): intermediate binding properties
BiR: heregulin/EGF chimera, amino terminal residues NSDSE replaced with heregulin SHLVK; SEQ ID NO 2 (SHLVKCPLSHDGYCLHDGVCMYIEALDKYACNCVVGYIGERCQYRDLKWWELR; Ligand Variant)	–	–	–	–	–	–	capable of stimulating cell proliferation	stimulation of HER5 cells (HER5 cells; stated as known): can be stimulated; stimulation of MCF-7 cells (MCF-7 cells; [4]): very weakly; stimulation of MCF-7 cells (MCF-7 cells; stated as known): can be stimulated
D4: WVS background, B-loop MYIEAYRVKT (second half YRVKT); SEQ ID 42 (Ligand Variant)	–	–	–	3.9 × 10^9 phage titer/mL	–	2.9 × 10^10 phage titer/mL	–	binding properties relative to WVS and WVS-R41DL47G (EGFR): intermediate binding properties; binding properties relative to WVS and WVS-R41DL47G (Her-3 [1]; T47D cells): intermediate binding properties
